doi:10.1101/2022.10.21.513107 (bioRxiv, 2022)
Where a chain is given by its changes, count along the chain named.

B1: sdAb C26 (VHH)
VHH: QVQLVESGGGLVQAGGSLRLSCAASGSIYSINAMGWYRQAPGKQRELVAVITSSGSTNYADAVKGRFTISRDNAKNQVYLQMNSLKPEDTAVYYCHAWSPFRGSFSGDALDAWGQGTQVTVSS
B2: sdAb C38 (VHH)
VHH: QVQLVESGGGVVQAGGSLRLSCAPSGNIFSINTMGWHRQAPGKQREFVARIRSSGQTNYADSVKGRFTISKDSAKDTVYLQMDNLQPEDSAVYYCTFNSGGWGVERKRRDYWGQGTQVTVSS
B3: sdAb 2A04 (VHH)
VHH: B2 VHH with Q3K, V5E, S90T, S99T, K107Q
B4: sdAb A37 (VHH)
VHH: QVKLEESGGGLVQAGGSLRLSCVASGSTFIITDMAWYRQAPGKQRELVAGITLRGGTNYADSVKGRFTISRDNVKNTVTLQMNSLKPEDTAVYYCNAKVAEWRNRPDYWGQGTQVTVSS
B5: sdAb 2A03 (VHH)
VHH: QVQLVESGGGLVQAGGSLRLSCAASGRTSSINIMGWYRQPPGKQREMVATIATGGTTNYAESVKGRFTISRDGAKFVYLQLNDLKPEDTAVYYCNAYRYAVGKNQRAWDIWGQGTQVTVSS

Key:
[1] = target: endogenous HPV16 E6 protein of SiHa cells (Human papillomavirus type 16, SiHa …, UniProt P03126); assay: immunostaining of cells or tissue
[2] = target: His6MBP-4C/4S E6 (Human papillomavirus type 16, reference …, UniProt P03126, stabilised); assay: far-Western, overlay or dot blot

| Binder | binding result [1] | binding result [2] |
| --- | --- | --- |
| B1 | binds |  |
| B2 |  | binds |
| B3 | binds |  |
| B4 | binds |  |
| B5 | binds |  |
